Measurements published in the supplement of paper PMC9233669.
Variants at the floor of the assay were thinned out.

How the values were obtained:
[1] = system: biotinyl-Leu-oxazolone; assay: self-aminoacylation, catalytic enhancement (BLO) (fold over background); higher = more active; k-Seq, kA / k0A0; sequences stand for … in GGGAAUGGAUCCACAUCUACGAAUUC…UUCACUGCAGACUUGACGAAGCUG
Method in brief: (§1)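 Mutagenized RNA pools with a 21-nt variable region (0.43 μM) reacted with each biotinyl-aminoacyl-oxazolone at 2–1250 μM. Reactions ran in 50 μL HEPES/NaCl/KCl/MgCl2/CaCl2 buffer with 5% acetonitrile, pH 6.9–7.0, for 90 minutes at room temperature. Streptavidin-captured RNA was quantified by triplicate qPCR and Illumina sequencing, and per-sequence fraction reacted was fit to a pseudo-first-order model with 1000 bootstraps. Catalytic enhancement is median kA divided by the uncatalyzed rate, the low-activity peak of a bimodal Gaussian fit.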

[2] = system: biotinyl-Phe-oxazolone; assay: self-aminoacylation, catalytic enhancement (BFO) (fold over background); higher = more active; k-Seq, kA / k0A0; sequences stand for … in GGGAAUGGAUCCACAUCUACGAAUUC…UUCACUGCAGACUUGACGAAGCUG
Method in brief: as §1

[3] = system: biotinyl-Trp-oxazolone; assay: self-aminoacylation, catalytic enhancement (BWO) (fold over background); higher = more active; k-Seq, kA / k0A0; sequences stand for … in GGGAAUGGAUCCACAUCUACGAAUUC…UUCACUGCAGACUUGACGAAGCUG
Method in brief: as §1

[4] = system: biotinyl-Ile-oxazolone; assay: self-aminoacylation, catalytic enhancement (BIO) (fold over background); higher = more active; k-Seq, kA / k0A0; sequences stand for … in GGGAAUGGAUCCACAUCUACGAAUUC…UUCACUGCAGACUUGACGAAGCUG
Method in brief: as §1

[5] = system: biotinyl-Met-oxazolone; assay: self-aminoacylation, catalytic enhancement (BMO) (fold over background); higher = more active; k-Seq, kA / k0A0; sequences stand for … in GGGAAUGGAUCCACAUCUACGAAUUC…UUCACUGCAGACUUGACGAAGCUG
Method in brief: as §1

[6] = system: biotinyl-Val-oxazolone; assay: self-aminoacylation, catalytic enhancement (BVO) (fold over background); higher = more active; k-Seq, kA / k0A0; sequences stand for … in GGGAAUGGAUCCACAUCUACGAAUUC…UUCACUGCAGACUUGACGAAGCUG
Method in brief: as §1

Row | Sequence | self-aminoacylation [1] | self-aminoacylation [2] | self-aminoacylation [3] | self-aminoacylation [4] | self-aminoacylation [5] | self-aminoacylation [6]
1 | AAGUUUGCUAAUAGACGCAUG [Fam3.1 aminoacylation ribozyme variant] | 0.553 | 0.785 | 0.703 | 0.645 | 0.48 | 0.59
2 | AAGUUUGCUCAUACUCGCAAG [Fam3.1 aminoacylation ribozyme variant] | 0.715 | 0.813 | 0.748 | 0.777 | 0.742 | 0.752
3 | AAGUUUGCUGAUAGUAGCAAG [Fam3.1 aminoacylation ribozyme variant] | 0.88 | 1.41 | 1.05 | 0.892 | 1.07 | 1.24
4 | CUACAUAAAACAAUCGGUCUG [Fam1A.1 aminoacylation ribozyme variant] | 0.738 | 0.674 | 0.539 | 0.808 | 0.934 | 0.799
5 | AAUCACCUAGGACAUCGGGUG [Fam2.2 aminoacylation ribozyme variant] | 3.27 | 19.1 | 5.94 | 3.91 | 4.09 | 3.32
6 | CUACUUCAAACAAUCGCUCGG [Fam1A.1 aminoacylation ribozyme variant] | 0.768 | 0.822 | 0.747 | 1.02 | 0.763 | 0.954
7 | AAGUUUCCUAAUAGUCGCGAG [Fam3.1 aminoacylation ribozyme variant] | 2.26 | 3.66 | 2.04 | 2.47 | 2.04 | 2.48
8 | CCACACUUCAAGCAAGCGGAC [Fam1B.1 aminoacylation ribozyme variant] | 0.794 | 0.42 | 0.604 | 0.959 | 1.16 | 1.15
9 | AAGUUUGCUGAUAGUCACAAG [Fam3.1 aminoacylation ribozyme variant] | 1.08 | 1.23 | 1.62 | 1.15 | 1.2 | 1.28
10 | AUUACCCUGGUCAUGUAGUGA [Fam2.1 aminoacylation ribozyme variant] | 2 | 4.73 | 2.4 | 1.77 | 1.97 | 1.81
11 | AUUCACCUACGUCAUUGGGUG [Fam2.2 aminoacylation ribozyme variant] | 2.47 | 10.9 | 1.51 | 1.5 | 1.97 | 1.51
12 | AUUCACCUAGGUCAGCGGGUG [Fam2.2 aminoacylation ribozyme variant] | 5.95 | 29.1 | 4.21 | 3.3 | 4.39 | 3.2
13 | AUUCCCCUAUGUCAUCGGGUG [Fam2.2 aminoacylation ribozyme variant] | 23.5 | 154 | 18.4 | 12.2 | 19.2 | 10.9
14 | AAGUUUGCUAAUAGUCGCGAG [Fam3.1 aminoacylation ribozyme variant] | 1.29 | 2.01 | 2 | 1.33 | 1.33 | 1.2
15 | AUUCAACUAGGUCAUUGGGUG [Fam2.2 aminoacylation ribozyme variant] | 4.71 | 23.7 | 3.66 | 2.3 | 3.46 | 2.19
16 | AUUCACCUAGGUUAUCGCGUG [Fam2.2 aminoacylation ribozyme variant] | 3.29 | 20.7 | 3.11 | 2.09 | 3.16 | 2.64
17 | CUACUCCAUACAAUCGGUCUG [Fam1A.1 aminoacylation ribozyme variant] | 0.628 | 0.859 | 0.549 | 0.833 | 0.719 | 0.751
18 | AUUCACCUAGGUCAUCGCGUU [Fam2.2 aminoacylation ribozyme variant] | 3 | 12.7 | 3.66 | 2.48 | 2.62 | 2.39
19 | AUUCACCUCGGUCAUCGGGUG [Fam2.2 aminoacylation ribozyme variant] | 9.64 | 53.6 | 7.49 | 4.59 | 7.69 | 5.15
20 | AAGUCUGCUAGUAGUCGCAAG [Fam3.1 aminoacylation ribozyme variant] | 1.44 | 1.06 | 0.88 | 0.775 | 0.975 | 1.06
21 | CCGCACUUCAAUCAAUCGGUC [Fam1B.1 aminoacylation ribozyme variant] | 2.03 | 39.7 | 28.7 | 1.27 | 1.26 | 1.62
22 | AUUACCCUGGGCAUCGGGUGA [Fam2.1 aminoacylation ribozyme variant] | 11.5 | 65.7 | 10.8 | 5.62 | 10.4 | 6.68

Row | Sequence | self-aminoacylation [1] | self-aminoacylation [2] | self-aminoacylation [3] | self-aminoacylation [4] | self-aminoacylation [5] | self-aminoacylation [6]
23 | AGUAACCUGGUCAUCGAGUGA [Fam2.1 aminoacylation ribozyme variant] | 5.02 | 16.8 | 4.62 | 3.32 | 5.06 | 3.25
24 | ACGUUUGCAAAUAGUCGCAAG [Fam3.1 aminoacylation ribozyme variant] | 1.29 | 1.27 | 1.2 | 1.57 | 1.38 | 1.2
25 | AUUCAAAUAGGUCAUCGGGUG [Fam2.2 aminoacylation ribozyme variant] | 7.01 | 40.1 | 5.77 | 3.9 | 5.54 | 3.38
26 | CUACUUCACACAAUCGGUCUU [Fam1A.1 aminoacylation ribozyme variant] | 0.856 | 0.701 | 0.713 | 0.963 | 0.639 | 0.85
27 | AAGUUUGCUAAUAGGCGUAAG [Fam3.1 aminoacylation ribozyme variant] | 0.66 | 0.828 | 0.664 | 0.669 | 0.735 | 0.735
28 | AUGACCCUGGUCACCGAGUGA [Fam2.1 aminoacylation ribozyme variant] | 11.7 | 45.5 | 9.23 | 3.68 | 10.5 | 5.03
29 | AUUACCCCAGUCAUCGAGUGA [Fam2.1 aminoacylation ribozyme variant] | 4.88 | 24.9 | 6.76 | 2.92 | 6.05 | 3.25
30 | AUGACACUGGUCAUCGAGUGA [Fam2.1 aminoacylation ribozyme variant] | 6.42 | 25.8 | 6.47 | 3.42 | 5.48 | 3.05
31 | AAGUUUGCUAAUAGUCAUAAG [Fam3.1 aminoacylation ribozyme variant] | 1.15 | 17.9 | 5.59 | 1.44 | 1.27 | 1.25
32 | AAUCACCUAGGUCAUCGGGGG [Fam2.2 aminoacylation ribozyme variant] | 3.66 | 10.6 | 3.96 | 2.91 | 3.21 | 2.77
33 | CCACAAUUCAAGCAGUCGGUC [Fam1B.1 aminoacylation ribozyme variant] | 1.17 | 1.06 | 0.925 | 1.36 | 1.11 | 1.22
34 | UUACUUCAAACAAUUGGUCUG [Fam1A.1 aminoacylation ribozyme variant] | 1.14 | 1.76 | 1.61 | 1.43 | 1.2 | 1.12
35 | AUACACCCAGGUCAUCGGGUG [Fam2.2 aminoacylation ribozyme variant] | 4.64 | 32.7 | 5.99 | 3.78 | 5.29 | 3.3
36 | ACCCACCUAGGUCAUCGGGUG [Fam2.2 aminoacylation ribozyme variant] | 5.88 | 54 | 6.03 | 5.07 | 5.93 | 5.64
37 | AUUACCCUGGUCAUCAUGUGA [Fam2.1 aminoacylation ribozyme variant] | 6.36 | 26.2 | 6.97 | 2.67 | 6.44 | 3.17
38 | AUUCACCUAGGACAUCGGGAG [Fam2.2 aminoacylation ribozyme variant] | 1.03 | 0.29 | 0.92 | 1.02 | 1.08 | 0.991
39 | AUUCACUUAAGUCAUCGGGUG [Fam2.2 aminoacylation ribozyme variant] | 12.4 | 71.7 | 9.67 | 5.72 | 8.88 | 5.11
40 | AUUACACUGGUCAGCGAGUGA [Fam2.1 aminoacylation ribozyme variant] | 5.37 | 16.9 | 5.83 | 3.4 | 4.36 | 2.58
41 | AGUACCCUGGUCAUCGAGUGU [Fam2.1 aminoacylation ribozyme variant] | 13.6 | 29.9 | 11.7 | 5.14 | 14.2 | 5.27
42 | CAGUUUGCUAAUAGUCGCAAG [Fam3.1 aminoacylation ribozyme variant] | 1.35 | 2.94 | 1.55 | 1.36 | 1.28 | 1.21
43 | AUUACCCUGGUCAUCCAGUGA [Fam2.1 aminoacylation ribozyme variant] | 5.76 | 28.1 | 6.71 | 3.41 | 5.67 | 3.42
